According to the domain aggregation screens of Martell et al. (2025):

Test: soluble fraction after stress (log2 fold change); higher = more stays soluble; pooled small domains, quantitative proteomics
Details: stress: 50 degC
In short: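 The stress applied to every library was 50°C. These custom libraries of small protein domains were pooled and measured at high throughput with quantitative proteomics as the read-out. Aggregation propensity is expressed as the base-two logarithm of the fold change in how much of each protein remains soluble. The higher the value, the more of that protein stays in solution.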

Row | Sequence | soluble fraction (log2)
1 | HMTHPAHLARIGALIRSARQHEGLTQAQLAELLGTSQSAIHRIEQGGQNITLDMLTRISAALDSEIVTIG | -0.921
2 | HMNISLGALVTITDQKGRSHTVTLESGKQFFTNHGSINHDEIIKAGEGGVVASSSGMLYTIFTP | -0.836
3 | HMGIIVDMSKIKQMLQLSEAGHSNRKIALELGINKETVNNYMQLIRNGRLDIRQLLKMDDPELERRFHA | -0.329
4 | HMELNGVSETAKSVYSIILNNSSTVDDIVIKTKLPAAKVMQALTELELNDAVERKSGGVYALP | 0.13
5 | HMVQDDDPNSVAKFIDQVIESNPEQVEQYRSGKEKVFNFFLGQTMRLSKGKANPDLVSELLKEKLS | 0.0395
6 | HMKYKWLAGQLRRELLENGGKKGYKLPTELELARRYQLSRQTVRRALQLLEEEGLILRRQGSGAYATGKPP | -0.316
7 | HMQARDQNVDEGKALLEKEFSRLALENLDRDKLANAVNYPTRDDMYAAIGAGDLRVGQVLHQAQQLF | 0.142
8 | HMRNSFTVENTGERLDVFLTGQMPEFSRSHIQKLIASGQAWVNGVNRKGNFKLKPHDVVELEVPEPE | 0.53
9 | HMTPNATWQDDAQSLLRDLIQHQPVLIQISAAKRLRDQAEQISRITGGDTVTRDHVEAAGHALGMGVT | 0.0517
10 | HMIEINNLEDLKLMKEFILKNGKYGFGVFVGGKYIGLSDIGSVNSFKDTLGLPVVSLGNDDFKRFTEAH | -0.658
11 | HMSDMIGQNIRRLRTEKQMTQKALADKLFVTAQAVSRWENGEVEPSLSTVTEIARIFNVSADEILGI | -0.0125
12 | HMRRSDLVTQGDEILKRLQWNQQQAKDFLNQHLKASSRQQLTDEQLLNFNMLLEEQLVKSME | 0.103
13 | HMDGISANAVKALIESLIAGEDKRKPLSDQAMSDRLALQGIVLARRTVAKYREELNFPPAHQRKQK | -0.572
14 | HMDVNKDLLGETLEKAKSYKADDWRKASYEALQKAIVEAEAVYKDEEADQVAVDRKVAALNKAINNLEAKG | -0.234
15 | HMESWEDSNIANEFKSTIKIAEKRLAEGGDHPELLEKLEALKQAIINENQTEASKLDDQVNDILFDMDD | -0.0057
16 | HMDIGKNIQTIRYANKLTQDQVIAKLNLMGISMSKSTYAKLETNRMNIKVSELVALAKIFHTDINAF | -2.43
17 | HMENVVESIYNKMVESITNGQWAAGSKIPTENELAKTYQVSRSSVRQAISRLKALGLLESRQGSGTVIKK | 0.272
18 | HMSSLKKISIDELSPGMYVHSIVEQKGSVKIKSQGKVLKQAVVDALRKRGVKTLLIDLSKQFNPETGEP | -0.0124
19 | HMPMDDETWDALSLFAYKRYARENGWPLMIGAEALRDTFASYFPLDSSTWQDRSSHYLTYQDGIYTRT | -0.53
20 | HMSREEFLTELRKALQGRVSQQTVNDNLRYYEEYILTESHKGKTEAEVIAELGNPRLLAKSIIDAENAT | 0.107
21 | HMDLMQRVIIVRPVMQGDYLTRAHLGLQTLSRNGGGGFTDIDDLVGRRAKKSLRAGLVVHNRHL | -0.694
22 | HMVLPELRLQGLPTAVLRLINRATALADDYRRLMEIAEDGRIDEWEAPEFERISENIQRVIAAGFEVL | 0.0167
23 | HMIGGASVFKQFLPLADKMLLTLIHSEFEGDTYFPVFSEKEWLLQESSSLLSATGYQLSFQTYIR | 0.0328
24 | HMTDLVVGLAGITLEPLRPAGKAEFNGSVVDVVSLGDYIEKSTAIQIVEIEGNRIVVHHGED | -0.0705
25 | HMQGWREWDYSADLYINARVGGKIEPTENSPISRVYELDEPVSVVAFTSTRYFKLSSGDYIFAEYLSAQKV | -1.2

Row | Sequence | soluble fraction (log2)
26 | HMILSTNFFRHIVPKEYQTSYGTMKKWLTDHNVIGTNSIPQGIGYRIPTQGLSSTFSFKVVDVLPDR | -0.525
27 | HMNILVAISDTGEIWINKRRVDARAVQANIERLHAENPQGTVVIQADKQATTETLIKVMDASRAAGVFDVS | -0.618
28 | HMENPLETYYSQWVSAIKREHPEASFVKDTDGKYYVEGLTKNRLAVIYENPHLVRLVNATTNLHVE | -0.305
29 | HMNLQGIISQKAIVTQTIEPYETGVAKLNGEEWTAMSKDETRIEAGKLVEVVAIEGVKLIVKEVS | -0.0794
30 | HMTTGREGLIGAVGTVRQAIAPEGYVFVEGELWRAKSPAGPLEPGTTVRVIAIDGLTLTVMPAE | -0.348
31 | HMKIVFGHVKWFDIDKGFGFLVLEDEGGDVLLHANVLKNFGRTSVSEDTKIEFEFLETDKGRQVSTIYNIL | -3.85
32 | HMRQQSLHSLYRDHHSWLQNWLRRQLGNTWDAADLSQDTFIKVLASSQSVAEIREPRAYLLTVGKRL | -0.17
33 | HMHMKTIEWDSLVLIMYKDMKYLKRINEGQSFHGKGGMLNYADLIGKTYGIRFGQYEIFEPSLEDIVMYG | -0.126
34 | HMPEMAIRTLRLRNQRGAAVAAEWSRITASLLELRQVEFVNPVDQLIVLKGPEPWAGVAEELVRQLDV | -0.849
35 | HMFGIEIPEEAGKLQDYTLTDDDLEGGNTLKEIQFPQGARVVIIRRDDKFIIPDGSVELQSGDQLLIIYGE | -0.578
36 | HMNYSKQRETILKVLRSTRSHPSVNWIYENVKKEIPDVGLATVYRNLKQLEAAGEIMRIQGDFPEERWDGF | -0.911
37 | HMAPLATLEADGNGAVKLPNLAGHAIREVAAALGGANLALIPIGSGTSWKQNPAPGTILHKGDTVTVYF | -0.0832
38 | HMGVQKGKDNALAVQQWIAERDATGDFGEYERRGIINRSALFDELGIPRSSMGSNDQIRQMIEAADVRWF | -0.189
39 | HMPRNEIQRSVLNELVQWIKNNLAKKLTMQALSRFSGYSEWHLFRLFRHYFNMSPMAYIRQQRMQ | -0.265
40 | HMTFNEPSPKEIMDYSLSRGYKVDADAFIDFYRGKAKAYGKEGLWLDGRGRLVKDWRAKLRVVWFKDENKL | -1.22
41 | HMAESSPYTVRPGDTLWKILAQTQNARYNDFPYLYRKFRELNPNITDLNHIVSGQKIIVPHIPG | 0.0168
42 | HMAPKSALKIIEQISNNPRATMTDLANLTGYSRRWVAQTIKRLQEENIIKRIGSDKSGYWEIIG | -0.321
43 | HMQETIDVAALRVGMFVHLDLGWLAHPFPLSSFRISSEDQISTIRALGLKRVRWSSQHSELG | -1.11
44 | HMADYSGYLGKKGKVIAPLRPAGTALIDGERVDVVSFGDYIDKDSEIEVVKIEGSKLLVKKY | 0.141
45 | HMDQVYYDLKSLIELLPADQMEVLKMRYFEELSFKKIAQKIDVSINTALGRMRYALINLRALSKKHHID | -0.189
46 | HMTTGLETYPGKIAVVSDDFIDGEGRVQLDGALWRAKTKDHQQLKQGDHVTIVNVKGLTLTVMPDD | 0.23
47 | HMTPTITNALEEAEKAVSEVQEGKKEIELTPQGAYIRHLQHAIADRYGISSTSTGRDPKRKVIIY | -0.108
48 | HMSDIISEIESQVMFKLATYEITNATEKMIEALINSEINDRRTLGFPIPNEQGRIFLVRSIQNKLAV | -1.05
49 | HMGVSAGQVRGLIRNLIAGEDKSKPLSDLALERELEKREIRISRRTVAKYRAELGIPNSDQRRYLP | -0.642
50 | HMVTKQKKLVLTIIERSHGHLSAEEIFFRAREEMPNIALGTVYRNLNSLTEEGIVRRITLPGTSDRFDT | -2.79

Row | Sequence | soluble fraction (log2)
51 | HMLLQTAVISTDIVNMRAEPTTNSSVIRKLTKGSDITINQEKDGWYKISDDQGNSGWIVTWAAKPT | 0.0497
52 | HMAQLPADMSKVKSADISEAQLQEFIQKATSSGYNMNQIEMEFAKRGMSENEVSLLRPRLRRLMAS | -0.031
53 | HMDEETVALQKAIHSLPPKQQAVFNMRYYDEMSFREIADANETTESSAKANYHFAKAKIIEQMKR | 0.101
54 | HMVDKDFKPLYASLERLDSTSIIEILDSNRIDYRIDQRSGALLVDADQIHQARLSLASAGMPA | -0.116
55 | HMTSHYTVLGVKETDTIEMIRTHYRKLILQFHPDKNQHLTEEERKKLEVKVLQIREAYEKIKKEK | -0.214
56 | HMKKPANLISEDRMVEVLYDVIIINTAKGVNKQLLQNNINNPLNYIYRSHGIDSLQFAESNAYYTS | -0.371
57 | HMETLYGQIVNDIMEKIESNAWPVGYVIPTESDFQKQYGVSRATVRNAILKLAHLGYLVRKKGSGTYVTRP | -0.975
58 | HMRHLSVPSQDTQQVLQRLKVELALPEGARVRSDPSDPGRRLIPFTESVPQEMIDQYPVVSINI | 0.0489
59 | HMALPDWLDPEAWAAWKRHRKAIRKPLTEDAVALSIRELAKLRDEGYGPTSVIENAILKGWQGLYPPK | -0.133
60 | HMLPGLGPIERAQFMLQAIPGISPTRSAALIDKFGSIAGIAQASIKDIQTIEGIGKKTATTLYEVLNAG | -0.341
61 | HMVMAELRISVDRLQIGNYIKLPLSWRDHPFLLSSFMIKKEEQIQLIRQLRLKHVFIIPEKSDAPPKPA | -4.15
62 | HMMNNKEIGTRIAVLRKGMGDSQAKLAERLDVSPQAVSKWETGQSLPDIGNLLKLSWLFRTSINHILEGS | -1.37
63 | HMAKRDEIEAELPRFVATITQELAASRDVLSMIEHYKQNSGPVFSAELDVLTADMRSGSYEAALTRFEARF | 0.0338
64 | HMALPQPDDDRQDTKKRILDMAEDLLLTRGFNAFSYQHISSELGMKNAAIHYHYPKKNDLGVAVIQRYRRR | 0.151
65 | HMSVDDYLKFSGSGTYWNTQDRGKTYLVNGQQRPLRDKEYLPDVMHRHVIDFITKHRDRPFYIYYSM | 0.0643
66 | HMSAEDQRRASQEAAYRFMQVMAGNEAGFEDAARALFAGDNHRFEVLIQSWPDDVRDHVSLLSVDAFA | -0.615
67 | HMSDKLTLPVQINGVFRYTIEINPSMQKDEIIDLVKNEERTAKYKQDKEIKNVIVVPGKIVNIII | 0.0263
68 | HMRTAELEVWDDDELNDVVKLIQNNHNINTLKLRFQENVSFSGLSLIAAVLTKQSIILEIEY | 0.0488
69 | HMTDWNTVEKETLSAIQKVLSGQASWIDLSPADHSIRHMQHEMVQQAGLISQSYGKEPMRRIRIYQNP | 0.117
70 | HMEAKSSTKALLDVVLGRNGVSTANVAKSLNISVQNASTRLKKLSSEGVIMRSEVSSPTGGIEFIYS | -0.0504
71 | HMELPPLEPIDRILVVQQPINIREQPGVLAKKIGRVSSGETLTILAKVSGQDWYFVETDNGGRGYVFKRV | -0.555
72 | HMAALKVAVLTVSDTRTQETDTSGAFLEGALREAGHEIADRQIVIDDVYQLRAIVSQWIADPEVEVILT | -0.217
73 | HMPVISGQDLRVLIRDTGRERDQGISFLDDGTMVVVEDARRLIGQEVTATVTRVHQTQTGRIVFAHLSN | 0.0684
74 | HMPQLVGDVDGDGRVSVTDGEWIRASYGALPWYAGWRAAADLDGSRKIDVVDLELLRTKMGN | -0.191
75 | HMLFVKLSDAQRSMFGAKLARDARIQSEYAQKLPSENYEVFGKALADMLLDETHFKTFYPLLVEYGYTQPK | -0.406
